{"source": "paper PMC9734137", "about": "(Cell Discovery, 2022)", "binders": {"B1": {"name": "aSA3 (VHH)", "VHH": "QVQLVESGGGLVQPGGSLRLSCAASGFTSDHYALAWFRQAPGKEREGVSCIDSDGNPFYADSVKGRFTGSRDNAKNTVYLQMNSLKLEDTAVYYCAAGLWYGRSLNSFDYDYWGQGTQVTVSS"}, "B2": {"name": "aRBD-2 (VHH)", "VHH": "QVQLVESGGGLVQAGGSLRLSCAASGRTYTMGWFRQAPGKEREFVAAMRWSDTDYADSLKGRFTISRDNANNAMYLQMNSLGPEDTAVYYCAAGEAWLARSTHHYDYWGQGTQVTVSS"}}, "key": {"WT SARS2 RBD [1]": {"target": "T1, WT SARS2 RBD (SARS-CoV-2 Wuhan (MN908947), UniProt P0DTC2)", "T1 construct": "not shown: Fc (human IgG1), C-terminal, cleaved", "assay": "SPR", "details": "both partners purified"}, "WT SARS2 RBD [2]": {"target": "T1, WT SARS2 RBD", "assay": "cell-based or functional assay"}}}
{"binder": "B1", "values": [{"measurement": "Kd", "setting": "WT SARS2 RBD [1]", "result": 0.0519, "unit": "nM"}, {"measurement": "IC50, neutralisation of WT SARS2 pseudovirus (blocks RBD-ACE2)", "setting": "WT SARS2 RBD [2]", "result": 0.97, "unit": "nM"}]}
{"binder": "B2", "values": [{"measurement": "binding result", "setting": "WT SARS2 RBD [1]", "result": "binds"}]}
